Assay results: patent US20070077597A1 (published 2007)

Columns and labels:
[1] = molecular target: LacI fusion clone 18 (Gt library) (E. coli, UniProt P03023 1-360); assay: panning, LacI Gt library on immobilized ROS membranes
Procedure: (§1) For screening of the library by “panning,” rhodopsin receptors prepared according to Example 5 were immobilized directly on Immulon 4 (Dynatech) microtiter wells (0.1-1 μg of protein per well) in cold 35 mM HEPES, pH 7.5, containing 0.1 mM EDTA, 50 mM KCl and 1 mM dithiothreitol (HEK/DTT). After shaking for one hour at 4° C., unbound membrane fragments were washed away with HEK/DTT. The wells were blocked with 100 μl 2% BSA in HEKL (35 mM HEPES; 0.1 mM EDTA; 50 mM KCl; 0.2 M α-lactose; pH 7.5, with 1 mM DTT). For rounds 1 and 2, BSA was used for blocking; in later rounds 1% nonfat dry milk was used. For the first round of panning, about 24 wells of a 96-well plate were used. In subsequent rounds, 8 wells with receptor and 8 wells without receptor were prepared.
(§2) The Gt library was thawed (2 mL aliquot) and mixed with 6 mL lysis buffer on ice. Lysis buffer contains 4.25 mL HE (25 mM HEPES: 0.1 mM EDTA; pH 7.5); 1 mL 50% glycerol; 750 μL 10 mg/mL protease-free BSA in HE; 10 μL 0.5 M DTT; and 6.25 μL 0.2 M PMSF. Freshly prepared lysozyme solution (150 μL 10 mg/mL lysozyme in cold HE) was added and the tube was gently inverted several times and incubated on ice for no more than two minutes. The extent of lysis is evidenced by an increase in viscosity that can be observed by noting the slow migration of bubbles to the top of the tube after mixing. Lysis was terminated by mixing in 2 mL 20% lactose and 250 μL 2M KCl. The tube was centrifuged immediately at 13,000×g for 15 minutes at 4° C. and the supernatant transferred to a new tube. A small aliquot of 0.1% (the PRE sample) was saved in a separate, labeled tube. […] Immediately thereafter, the crude bacterial lysate from the peptide library (200 μL) was added to each well and allowed to shake gently for one hour at 4° C. For round 2, this same procedure was followed. In round 3, the amount of lysate used was reduced to 100 μL. In subsequent rounds, the lysate was diluted 1:10 in HEKL/BSA.

[2] = molecular target: LacI fusion clone 19 (Gt library) (E. coli, UniProt P03023 1-360); assay: as above
Procedure: as §1, §2

[3] = molecular target: LacI fusion clone 4 (Gt library) (E. coli, UniProt P03023 1-360); assay: as above
Procedure: as §1, §2

[4] = molecular target: LacI fusion clone 24 (Gt library) (E. coli, UniProt P03023 1-360); assay: as above
Procedure: as §1, §2

[5] = molecular target: LacI fusion clone 15/28 (Gt library) (E. coli, UniProt P03023 1-360); assay: as above
Procedure: as §1, §2

[6] = molecular target: LacI fusion clone 17 (Gt library, light-activated rhodopsin screen) (E. coli, UniProt P03023 1-360); assay: as above
Procedure: as §1, §2

[7] = molecular target: LacI fusion clone 27 (Gt library) (E. coli, UniProt P03023 1-360); assay: as above
Procedure: as §1, §2

[8] = molecular target: T1, LacI fusion clone 8 (Gt library) (E. coli, UniProt P03023 1-360); assay: as above
T1 construct: also called Peptide 8; HAP
Procedure: as §1, §2

[9] = molecular target: LacI fusion clone 11 (Gt library) (E. coli, UniProt P03023 1-360); assay: as above
Procedure: as §1, §2

[10] = molecular target: LacI fusion clone 16 (Gt library) (E. coli, UniProt P03023 1-360); assay: as above
Procedure: as §1, §2

[11] = molecular target: LacI fusion clone 14 (Gt library) (E. coli, UniProt P03023 1-360); assay: as above
Procedure: as §1, §2

[12] = molecular target: LacI fusion clone 26 (Gt library, light-activated rhodopsin screen) (E. coli, UniProt P03023 1-360); assay: as above
Procedure: as §1, §2

[13] = molecular target: T2, LacI fusion clone 13 (Gt library), … (E. coli, UniProt P03023 1-360); assay: as above
T2 construct: also called L20
Procedure: as §1, §2

[14] = molecular target: LacI fusion clone 6 (Gt library) (E. coli, UniProt P03023 1-360); assay: as above
Procedure: as §1, §2

[15] = molecular target: LacI fusion clone 3 (Gt library, light-activated rhodopsin screen) (E. coli, UniProt P03023 1-360); assay: as above
Procedure: as §1, §2

[16] = molecular target: LacI fusion clone 23 (Gt library) (E. coli, UniProt P03023 1-360); assay: as above
Procedure: as §1, §2

[17] = molecular target: LacI fusion clone 33/37 (Gt library, dark-adapted rhodopsin screen) (E. coli, UniProt P03023 1-360); assay: panning, LacI Gt library on immobilized ROS membranes kept in the dark
[18] = molecular target: LacI fusion clone 41 (Gt library, dark-adapted rhodopsin screen) (E. coli, UniProt P03023 1-360); assay: as above
[19] = molecular target: LacI fusion clone 26 (Gt library, dark-adapted rhodopsin screen) (E. coli, UniProt P03023 1-360); assay: as above
[20] = molecular target: LacI fusion clone 21 (Gt library, dark-adapted rhodopsin screen) (E. coli, UniProt P03023 1-360); assay: as above
[21] = molecular target: LacI fusion clone 17 (Gt library, dark-adapted rhodopsin screen) (E. coli, UniProt P03023 1-360); assay: as above
[22] = molecular target: LacI fusion clone 2 (Gt library, dark-adapted rhodopsin screen) (E. coli, UniProt P03023 1-360); assay: as above
[23] = molecular target: LacI fusion clone 7 (Gt library, dark-adapted rhodopsin screen) (E. coli, UniProt P03023 1-360); assay: as above
[24] = molecular target: LacI fusion clone 3 (Gt library, dark-adapted rhodopsin screen) (E. coli, UniProt P03023 1-360); assay: as above

Measured: binding result

B1: light-activated bovine rhodopsin (metarhodopsin II) in rod outer segment membranes (receptor, UniProt P02699 1-348, looked up)
chain: MNGTEGPNFYVPFSNKTGVVRSPFEAPQYYLAEPWQFSMLAAYMFLLIMLGFPINFLTLYVTVQHKKLRTPLNYILLNLAVADLFMVFGGFTTTLYTSLHGYFVFGPTGCNLEGFFATLGGEIALWSLVVLAIERYVVVCKPMSNFRFGENHAIMGVAFTWVMALACAAPPLVGWSRYIPEGMQCSCGIDYYTPHEETNNESFVIYMFVVHFIIPLIVIFFCYGQLVFTVKEAAAQQQESATTQKAEKEVTRMVIIMVIAFLICWLPYAGVAFYIFTHQGSDFGPIFMTIPAFFAKTSAVYNPVIYIMMNKQFRNCMVTTLCCGKNPLGDDEASTTVSKTETSQVAPA
modifications: retinylidene chromophore on Lys-296 (all-trans after light)
notes: whole, on cells; also called MII
not listed: [17] | [18] | [19] | [20] | [21] | [22] | [23] | [24]
binds: all other assays above

B2: dark-adapted bovine rhodopsin in rod outer segment membranes (receptor, UniProt P02699 1-348, looked up)
chain: MNGTEGPNFYVPFSNKTGVVRSPFEAPQYYLAEPWQFSMLAAYMFLLIMLGFPINFLTLYVTVQHKKLRTPLNYILLNLAVADLFMVFGGFTTTLYTSLHGYFVFGPTGCNLEGFFATLGGEIALWSLVVLAIERYVVVCKPMSNFRFGENHAIMGVAFTWVMALACAAPPLVGWSRYIPEGMQCSCGIDYYTPHEETNNESFVIYMFVVHFIIPLIVIFFCYGQLVFTVKEAAAQQQESATTQKAEKEVTRMVIIMVIAFLICWLPYAGVAFYIFTHQGSDFGPIFMTIPAFFAKTSAVYNPVIYIMMNKQFRNCMVTTLCCGKNPLGDDEASTTVSKTETSQVAPA
modifications: 11-cis retinylidene chromophore on Lys-296
notes: whole, on cells; same protein as m1, left in the dark
binds: [17] | [18] | [19] | [20] | [21] | [22] | [23] | [24]
